Results: publication PMC7042059 (FEBS letters, 2019)
Where “and” joins values, the source holds several entries; their conditions need not be identical. Equal entries are not always repeated.

Target: the molecule itself
Assay: SEC

B1: PKM2 R399E (enzyme)
chain: not shown
stoichiometry N: 4 and 2
